# PMC9765508, “Metabolic Promiscuity of an Orphan Small Alarmone Hydrolase Facilitates Bacterial Environmental Adaptation” (mBio, 2022)
# What was measured:
# B. subtilis Rel = molecular target: T1, B. subtilis Rel (Bacillus subtilis, UniProt O54408); assay: […]-labelled nucleotide hydrolysis, TLC; type: biochemical; details: 20 mM Tris-HCl pH 7.5, 1 mM MnCl2, 37 °C, 240 nM enzyme; labelled compound
# T1 construct: gene relA; purified; construct and tag not described
# [1] = tested on: Nc1ncnc2c1ncn2[C@@H]1O[C@H](COP(=O)(O)OP(=O)(O)OP(=O)(O)O)[C@@H](OP(=O)(O)OP(=O)(O)O)[C@H]1O; assay: purified protein; type: biochemical, Xanthomonas campestris; details: 20 mM Tris-HCl pH 7.5, 1 mM MnCl2, 37 °C, 25 nM enzyme
# [2] = tested on: Nc1nc2c(ncn2[C@@H]2O[C@H](COP(=O)(O)OP(=O)(O)OP(=O)(O)O)[C@@H](OP(=O)(O)OP(=O)(O)O)[C@H]2O)c(=O)[nH]1; assay: purified protein; type: biochemical, Xanthomonas campestris; details: 20 mM Tris-HCl pH 7.5, 1 mM MnCl2, 37 °C, 50 nM enzyme
# [3] = tested on: Nc1nc2c(ncn2[C@@H]2O[C@H](COP(=O)(O)OP(=O)(O)O)[C@@H](OP(=O)(O)OP(=O)(O)O)[C@H]2O)c(=O)[nH]1; assay: purified protein; type: biochemical, Xanthomonas campestris; details: 20 mM Tris-HCl pH 7.5, 1 mM MnCl2, 37 °C, 50 nM enzyme
# [4] = tested on: Nc1nc2c(ncn2[C@@H]2O[C@H](COP(=O)(O)O)[C@@H](OP(=O)(O)OP(=O)(O)O)[C@H]2O)c(=O)[nH]1; assay: purified protein; type: biochemical, Xanthomonas campestris; details: 20 mM Tris-HCl pH 7.5, 1 mM MnCl2, 37 °C, 50 nM enzyme
# [5] = substrate: NC(=O)C1=CN([C@@H]2O[C@H](COP(=O)(O)OP(=O)(O)OC[C@H]3O[C@@H](n4cnc5c(N)ncnc54)[C@H](OP(=O)(O)O)[C@@H]3O)[C@@H](O)[C@H]2O)C=CC1; assay: phosphate release, malachite green assay, Michaelis-Menten fit; type: biochemical, Xanthomonas campestris; details: 20 mM Tris-HCl pH 8, 1 mM MnCl2, 37 °C, 1 μM enzyme
# Text: phosphate release, malachite green assay, Michaelis-Menten fit on XccSAH
# T1 sequence (O54408 whole entry): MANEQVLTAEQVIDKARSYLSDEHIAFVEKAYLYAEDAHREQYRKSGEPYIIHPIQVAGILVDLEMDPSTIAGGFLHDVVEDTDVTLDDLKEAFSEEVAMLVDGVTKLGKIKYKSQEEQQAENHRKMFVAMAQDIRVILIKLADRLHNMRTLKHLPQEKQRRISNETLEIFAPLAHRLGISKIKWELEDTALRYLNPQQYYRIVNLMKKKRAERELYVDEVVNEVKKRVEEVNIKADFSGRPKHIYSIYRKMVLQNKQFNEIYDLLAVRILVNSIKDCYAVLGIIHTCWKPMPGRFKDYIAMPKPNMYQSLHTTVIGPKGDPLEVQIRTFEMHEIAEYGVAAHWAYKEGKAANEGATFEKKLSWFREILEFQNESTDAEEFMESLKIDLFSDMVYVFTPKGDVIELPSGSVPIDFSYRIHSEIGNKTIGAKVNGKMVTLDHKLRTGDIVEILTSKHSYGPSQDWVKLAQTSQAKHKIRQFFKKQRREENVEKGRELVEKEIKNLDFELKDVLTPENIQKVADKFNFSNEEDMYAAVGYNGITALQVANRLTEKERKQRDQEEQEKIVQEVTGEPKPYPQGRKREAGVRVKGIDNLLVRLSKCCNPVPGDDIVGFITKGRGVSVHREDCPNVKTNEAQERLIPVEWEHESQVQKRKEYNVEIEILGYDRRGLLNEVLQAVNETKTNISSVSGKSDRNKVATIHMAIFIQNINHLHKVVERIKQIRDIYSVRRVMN
molecule,measurement,setting,value
Nc1nc2c(ncn2[C@@H]2O[C@H](COP(=O)(O)O)[C@@H](OP(=O)(O)OP(=O)(O)O)[C@H]2O)c(=O)[nH]1 [pGpp],"32P-labelled nucleotide hydrolysis, TLC",B. subtilis Rel,We found that B. subtilis Rel could also hydrolyze pGpp to GMP
XccSAH (Xanthomonas campestris pv. campestris str. ATCC 33913),Km,[1],45.82 ± 3.87 µM
same,Vmax,[1],73.1 µM/min
same,kcat,[1],48.8 ± 2.99 s⁻¹
same,kcat/Km,[1],1.07e+06 ± 75000 M⁻¹ s⁻¹
same,Km,[2],29.14 ± 4.41 µM
same,Vmax,[2],42.9 µM/min
same,kcat,[2],14.3 ± 1.45 s⁻¹
same,kcat/Km,[2],493000 ± 25000 M⁻¹ s⁻¹
same,Km,[3],14.13 ± 2.02 µM
same,Vmax,[3],21 µM/min
same,kcat,[3],6.99 ± 0.15 s⁻¹
same,kcat/Km,[3],500000 ± 82000 M⁻¹ s⁻¹
same,Km,[4],19.73 ± 4.75 µM
same,Vmax,[4],4.89 µM/min
same,kcat,[4],1.63 ± 0.07 s⁻¹
same,kcat/Km,[4],86000 ± 18000 M⁻¹ s⁻¹
XccSAH (Xanthomonas campestris pv. campestris str. ATCC 33913) (protein) MTALTERYAQAVDYARIAHAGQLRKGTQIPYLSHLLGVSTLVLECGGDEDQAIAGLLHDVVEDCGGGHEGSIRAQFGDAVADIVMACTDATAEDKADVDNTASARKRDWRERKQSYLAHLRKTPERALLVSGCDKLYNARTIVQDLENPDVGQEIFNVFTAGRDGTLWYYAALEEIFRTRKAATARLFSGVVARMQALADSSIDTVPAHAVA,Km,[5],132.2 ± 39.09 µM
same,Vmax,[5],2.88 µM/min
same,kcat,[5],0.048 ± 0.004 s⁻¹
same,kcat/Km,[5],363 ± 20 M⁻¹ s⁻¹
